# Positions count from the first letter of the chain named.
# T1: recombinant human IL6R-his (human, UniProt P08887 20-365)
# T1 construct: In house made; the entry includes the C-terminal His tag; also called human IL6R-his protein
# T1 sequence: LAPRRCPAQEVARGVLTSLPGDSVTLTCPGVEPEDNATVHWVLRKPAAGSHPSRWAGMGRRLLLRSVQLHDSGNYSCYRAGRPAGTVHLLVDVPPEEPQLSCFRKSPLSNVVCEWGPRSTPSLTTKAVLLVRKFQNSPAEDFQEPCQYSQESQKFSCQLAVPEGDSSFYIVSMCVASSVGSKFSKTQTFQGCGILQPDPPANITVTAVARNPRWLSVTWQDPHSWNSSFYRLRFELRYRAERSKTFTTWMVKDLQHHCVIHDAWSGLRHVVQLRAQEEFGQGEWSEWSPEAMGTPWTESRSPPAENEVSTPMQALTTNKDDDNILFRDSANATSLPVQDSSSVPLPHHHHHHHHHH
# T2: macaca IL6R-his protein (macaca mulatta)
# T2 chain: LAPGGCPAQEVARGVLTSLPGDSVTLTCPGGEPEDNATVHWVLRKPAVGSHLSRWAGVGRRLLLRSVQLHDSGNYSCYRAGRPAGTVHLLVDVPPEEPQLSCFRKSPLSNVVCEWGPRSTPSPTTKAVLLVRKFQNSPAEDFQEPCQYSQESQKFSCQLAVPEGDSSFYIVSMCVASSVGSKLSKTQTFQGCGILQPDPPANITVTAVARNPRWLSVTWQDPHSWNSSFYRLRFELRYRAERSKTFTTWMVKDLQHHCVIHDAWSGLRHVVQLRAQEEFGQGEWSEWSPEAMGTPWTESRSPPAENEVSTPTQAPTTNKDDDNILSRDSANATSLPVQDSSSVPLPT
# B1: mouse anti-IL6R monoclonal antibody 1F7 (antibody, V domains shown)
# VH: QVQLQQPGAELVKPGASVKLSCKASDYTFTSYWMHWVKQRPGQGLEWIGEINPSNGRTNYNEKFKNKATLTVDKSSSTAYVQLYSLTSEDSAVYYCARLSIHYVFDYWGQGTTLTVSS
# VL: ELVLTQSPTTMAASPGEKITFTCSASSSISSNYLHWYQQKPGFSPKLLISGTSNLASGVPPRFSGSGSGTSYSLTIVTMEAEDVATYYCQQGSGIPFTFGSGTKLEIK
# notes: Mouse hybridoma mAb
# B2: mouse anti-IL6R monoclonal antibody 1A3 (antibody, V domains shown)
# VH: QVQLQQPGAELVKPGASVKLSCKASGYTFTSYWMHWVKQRPAQGLEWIGEINPSNGRTNFNEKFKTKATLTVDKSSNTAYMQLSSLTSEDSAVYSCLRLNTHYVFDYWGQGTTLTVSS
# VL: B1 VL with L2I, F21I, G51R, P61T, V77G, E82G
# notes: Mouse hybridoma mAb purified on Protein A
# B3: mouse anti-IL6R monoclonal antibody 1D4 (antibody, V domains shown)
# VH: QVQLQQPGAELVKPGASVKLSCKASGYTFTSYWMHWVKVRPGQGLEWIGEINPTNGRTNYNEDFKSKATLTVNSSSSTAYMQLSSLTSEDSAVYYCARLNTHYVFDYWGQGTTLTVSS
# VL: B1 VL with L2I, T10I, M11L, A25V, S50Y, G51R, P61A, V77G
# notes: Mouse hybridoma mAb
# B4: mouse anti-IL6R monoclonal antibody 1H7 (antibody, V domains shown)
# VH: B3 VH with A9T, S31N, V39Q, E46D, D63N, N73D, S74K, Y107S, V116L
# VL: B1 VL with L2I, M11L, A25V, G51R, N54T, P61A, V77G, I107L
# notes: Mouse hybridoma mAb
# B5: mouse anti-IL6R monoclonal antibody 3C2 (antibody, V domains shown)
# VH: QVQLQQPGTELVKPGASVKLSCKASGYTFTTYWIHWVKQRPGQGLEWIGEINPSNGRTNYNEHFKSKATLTVDKSSSTASMQLSSLTSADSAVYYCARLNTHYVFDSWGQGTTLTVSS
# VL: B1 VL with L2I, F21I, S50Y, G51R, P61T, R62H, V77G
# notes: Mouse hybridoma mAb
# B6: mouse anti-IL6R monoclonal antibody 1B5 (antibody, V domains shown)
# VH: B3 VH with V39Q, T54S, D63N, N73D, S74K
# VL: B1 VL with L2I, T10I, M11L, A25V, S50Y, G51R, P61A, V77G
# notes: Mouse hybridoma mAb
# B7: mouse anti-IL6R monoclonal antibody 1G1 (antibody, V domains shown)
# VH: B3 VH with N73E, L83F
# VL: B1 VL with L2I, T10I, M11L, A25V, S50Y, G51R, P61A, V77G
# notes: Mouse hybridoma mAb
# B8: mouse anti-IL6R monoclonal antibody 1H9 (antibody, V domains shown)
# VH: QVQLQQPGAELVKPGASVKLSCKASGYTFTSYWMHWVKLRPGQGLEWIGEINPTNGRTNYYEKFKNRATLTADKSSSTAYMQLSSLTFEDSAVYFCAKFHYSRWYFDVWGTGTTVTVSS
# VL: DIVMTQSQKFMSTSVGDRVSITCKASQNVGTAVVWYQQKPGQSPKLLINPASNRYTGVPDRFTGSGSGTDFTLTISNMQSEDLADYFCQQYSSYPLTFGAGTKLELK
# notes: Mouse hybridoma mAb
# B9: Tocilizumab (antibody, human IgG1, kappa, V domains shown)
# VH: QVQLQESGPGLVRPSQTLSLTCTVSGYSITSDHAWSWVRQPPGRGLEWIGYISYSGITTYNPSLKSRVTMLRDTSKNQFSLRLSSVTAADTAVYYCARSLARTTAMDYWGQGSLVTVSS
# VL: DIQMTQSPSSLSASVGDRVTITCRASQDISSYLNWYQQKPGKAPKLLIYYTSRLHSGVPSRFSGSGSGTDFTFTISSLQPEDIATYYCQQGNTLPYTFGQGTKVEIKR
# notes: In house made; also called benchmark; Actemra
# Target: T1, recombinant human IL6R-his
# Assay: SPR Biacore T200; mAb captured by anti-mouse IgG on CM5, antigen in flow, 1:1 fit
# Procedure: (§1) Un-reacted moieties on the biosensor surface were blocked with ethanolamine. […] Then, serially diluted recombinant human IL6R-his (in house made, amino acid sequence set forth in SEQ ID NO: 44) or macaca IL6R-his protein (in house made, amino acid sequence set forth in SEQ ID NO: 45), starting at 100 nM with a 2-fold serial dilution in HBS-EP⁺ buffer (provided by Biacore), was flowed onto the chip at a flow rate of 30 μL/min. The antigen-antibody association kinetics was followed for 2 minutes and the dissociation kinetics was followed for 10 minutes. The association and dissociation curves were fit to a 1:1 Langmuir binding model using BIAcore evaluation software.
Kd [nM],koff [s⁻¹],kon [M⁻¹ s⁻¹],Binder
0.537,7.46e-05,139000,B1
0.293,4.32e-05,148000,B2
0.628,8.64e-05,138000,B3
0.308,4.73e-05,153000,B4
0.911,0.000135,148000,B5
0.476,6.7e-05,141000,B6
0.647,9.09e-05,141000,B7
1.08,0.00012,112000,B8

# Target: T2, macaca IL6R-his protein
# Assay: as above
# Procedure: as §1
Kd [nM],koff [s⁻¹],kon [M⁻¹ s⁻¹],Binder
0.523,6.46e-05,124000,B1
0.328,4.54e-05,139000,B2
0.6,7.39e-05,123000,B3
0.229,3.14e-05,137000,B4
0.977,0.000127,130000,B5
0.609,7.86e-05,129000,B6
0.736,8.85e-05,120000,B7
1.65,0.000155,94100,B8

# Target: T2, macaca IL6R-his protein
# Assay: indirect ELISA on plate-coated macaca IL6R-his
# Procedure: (§2) The anti-IL6R antibodies were tested for their cross-reaction with macaca IL6R. Briefly, 96-well micro plates were coated with 2 μg/ml macaca IL6R-his protein (in house made, amino acid sequence set forth in SEQ ID NO:45) in carbonate/bicarbonate buffer (pH 9.6), 100 μl/well, for 2 hours at 37° C. ELISA plates were washed once with wash buffer (PBS+0.05% v/v Tween-20, PBST) and then blocked with 200 μl/well blocking buffer (5% w/v non-fatty milk in PBST) for 2 hours at 37° C. Plates were washed 4 times and incubated with 100 μl/well serially diluted anti-IL6R antibodies of the disclosure or controls, starting at 66.67 nM with 5-fold serial dilution in PBST with 2.5% w/v non-fat milk, and incubated at 37° C. for 40 minutes. ELISA plates were washed 4 times again and incubated with 100 μl/well Peroxidase AffiniPure Goat Anti-Mouse IgG, Fcγ Fragment Specific (1:5000 dilution in PBST buffer, Jackson ImmunoResearch Laboratories, Inc., Cat #115-035-071) for 40 minutes at 37° C. After the final wash, plates were incubated with 100 μl/well TMB (InnoReagents). The reaction was stopped 3-10 minutes later at room temperature with 50 μl/well 1M H₂SO₄, and the absorbance of each well was read on a microplate reader using dual wavelength mode with 450 nm for TMB and 630 nm as the reference wavelength. Then the OD (450-630) values were plotted against antibody concentration. Data was analyzed using Graphpad Prism software and EC₅₀ values were reported.
row,EC50 [nM],Binder
1,0.501,B7
2,0.341,B8
3,0.0575,B9

# Target: T2, macaca IL6R-his protein
# Assay: indirect ELISA on plate-coated macaca IL6R-his
# Remark: another data set of the same source
# Procedure: as §2
row,EC50 [nM],Binder
1,0.228,B2
2,0.175,B3
3,0.0589,B9

# Target: T3, human IL6R-Fc protein (human, biotin-labeled in the ELISAs (sites not given))
# T3 construct: In house made; also called biotin-labeled human IL6R-Fc protein
# T3 sequence (chain, as listed by the source limits assumed): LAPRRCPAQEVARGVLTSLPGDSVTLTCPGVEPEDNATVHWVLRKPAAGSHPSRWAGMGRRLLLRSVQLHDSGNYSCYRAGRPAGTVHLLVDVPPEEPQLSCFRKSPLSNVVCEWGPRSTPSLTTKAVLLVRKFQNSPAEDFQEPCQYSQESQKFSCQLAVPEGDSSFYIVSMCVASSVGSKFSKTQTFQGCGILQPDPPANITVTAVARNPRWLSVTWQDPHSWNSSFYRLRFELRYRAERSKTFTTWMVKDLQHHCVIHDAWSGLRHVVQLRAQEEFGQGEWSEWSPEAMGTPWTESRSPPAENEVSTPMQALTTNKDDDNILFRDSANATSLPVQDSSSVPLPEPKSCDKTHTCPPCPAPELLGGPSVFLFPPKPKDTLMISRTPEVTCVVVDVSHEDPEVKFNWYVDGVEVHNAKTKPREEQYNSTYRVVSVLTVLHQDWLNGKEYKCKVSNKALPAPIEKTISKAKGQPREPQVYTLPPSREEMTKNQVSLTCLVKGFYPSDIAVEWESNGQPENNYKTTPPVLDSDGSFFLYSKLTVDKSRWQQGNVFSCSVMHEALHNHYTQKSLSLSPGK
# Assay: capture ELISA: antibody captured on anti-IgG F(ab')2 coated plate, then biotin-labeled human IL6R-Fc, streptavidin-HRP
# Procedure: For the capture ELISA, 96-well micro plates were coated with 2 μg/ml AffiniPure Goat Anti-Mouse IgG, F(ab′)₂ fragment specific (Jackson ImmunoResearch Laboratories, Inc., Cat #115-005-072) in PBS, 100 μl/well, and incubated for 2 hours at 37° C. Plates were washed once with wash buffer (PBS+0.05% v/v Tween-20, PBST) and then blocked with 200 μl/well blocking buffer (5% w/v non-fatty milk in PBST) overnight at 4° C. […] Plates containing captured anti-IL6R antibodies were incubated with biotin-labeled human IL6R-Fc protein (prepared in house, SEQ ID NO: 43, 39.5 ng/ml in 2.5% w/v non-fatty milk in PBST, 100 μl/well) for 40 minutes at 37° C., washed 4 times, and incubated with streptavidin conjugated HRP (1:10000 dilution in PBST, Jackson ImmunoResearch Laboratories, Inc., Cat #016-030-084, 100 μl/well) for 40 minutes at 37° C. After a final wash, plates were incubated with 100 μl/well ELISA substrate TMB (InnoReagents, Cat #TMB-S-002). The reaction was stopped 3-10 minutes later at room temperature with 50 μl/well 1M H₂SO₄, and the absorbance of each well was read on a microplate reader using dual wavelength mode at 450 nm for TMB and 630 nm as the reference wavelength. Then the OD (450-630) values were plotted against antibody concentration. Data was analyzed using Graphpad Prism software and EC₅₀ values were reported.
row,EC50 [nM],Binder
1,0.0593,B1
2,0.073,B2
3,0.0558,B3
4,0.0436,B4
5,0.0536,B5
6,0.0372,B6
7,0.085,B7
8,0.0679,B8

# Source: US20230167182A1 (BIOSION, published 2023)
